Measured values from article PMC2978023 (Journal of immunology (Baltimore, Md. : 1950), 2008).
Ends that are not written are not given here.

Experiments:
Assay in all cases: ELISA
[1] = target: recombinant purified β2 integrin subunit (UniProt P05107 23-769)
[2] = target: recombinant purified integrin αMβ2 (UniProt P11215 17-1152; P05107 23-769)
[3] = target: recombinant purified αM integrin subunit (UniProt P11215 17-1152)

| Kd [1] [µM] | Kd [2] [µM] | Kd [3] [µM] | Binder |
| --- | --- | --- | --- |
| > 100 | – | – | GWTVFQKRLDGSV (also: biotin label, position not given here) [peptide P1, Fgγ(190)GWTVFQKRLDGSV(202)] |
| 0.05 | 0.012 | 0.1 | KIIPFNRLTIG (also: biotin label, position not given here) [peptide P2-C, Fgγ(385)KIIPFNRLTIG(395)] |
